Experimental findings from patent publication US20240325557A1, “TREATMENT OF CANCER” (INNATE PHARMA, priority 2020, published 2024) are described below.

Experiment [1] relates to SUM190 cells. Nature of the experiment: In vivo efficacy of ADCs, SUM190 mouse model of human breast cancer (Example 9). As to conditions: single i.v. injection 3 mg/kg; antibodies conjugated to ggfg-Dxd, DAR=8. On the procedure:
When tumors reached a volume between 195 and 250 mm3, mice were randomized into groups of 9 mice for intravenous treatment with a single injection of 3 mg/kg of camptothecin ADCs. Tumor growth were followed twice a week. Kaplan Meier survival curves were established by using GraphPad Prism V7 software according to the following criteria: When the tumor volume reached 1500 mm3, mice were euthanized and considered dead on the day of sacrifice (D).

The target in the next experiment is T1, Nectin-4 on SUM185 cells (Homo sapiens, UniProt Q96NY8).
T1 construct: host or cells: SUM185
T1 sequence (Q96NY8 32-510): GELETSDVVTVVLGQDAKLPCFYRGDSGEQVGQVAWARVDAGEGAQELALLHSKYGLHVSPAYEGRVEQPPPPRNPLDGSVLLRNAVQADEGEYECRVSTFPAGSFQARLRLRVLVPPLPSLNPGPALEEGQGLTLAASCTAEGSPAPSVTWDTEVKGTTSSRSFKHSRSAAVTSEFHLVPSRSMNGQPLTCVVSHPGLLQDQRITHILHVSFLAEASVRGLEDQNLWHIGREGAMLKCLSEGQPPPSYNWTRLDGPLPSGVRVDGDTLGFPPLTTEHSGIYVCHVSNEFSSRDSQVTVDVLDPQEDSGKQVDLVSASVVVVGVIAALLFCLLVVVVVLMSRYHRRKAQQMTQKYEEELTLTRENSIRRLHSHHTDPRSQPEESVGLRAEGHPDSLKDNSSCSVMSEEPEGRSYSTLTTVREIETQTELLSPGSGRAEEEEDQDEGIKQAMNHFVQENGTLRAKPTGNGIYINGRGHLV
In words: Flow cytometry titration on SUM185 cells. Type of experiment: binding. The conditions noted are these: cells detached with trypsin. As to the method:
In this experiment, the ability of anti-Nectin-4 Abs to bind to Nectin-4 on SUM185 cells (expressing relatively high levels of Nectin-4) was assessed by flow cytometry. […] Briefly, SUM185 cells were detached from the flask with trypsin (37° C. for 5 min) and then washed once with media. 50 000 cells were incubated with a concentration range of test antibodies starting from 20 μg/ml (8 points, dilution factor 4) for 30 minutes at 4° C. […] Cells were washed twice with ice-cold SB. Acquisition was done on a flow cytometer.

The subject of another experiment is SUM185 cells. Nature of the experiment: Fab-ZAP internalization assay (CTG cell viability). Type of experiment: cell-based, human. On the procedure:
(§1) The ability of the anti-Nectin-4 antibodies to induce nectin-4 internalization was assessed on SUM190 cell lines expressing lower levels of nectin-4 and in SUM185 cells expressing higher levels of Nectin-4. The internalization was indirectly determined by using the Fab-ZAP human Internalization Kit (Advanced Targeting Systems) to allow the anti-Nectin-4 antibodies to target and eliminate Nectin-4 expressing cells, with measurement of cell viability using the CTG substrate (CellTiter-Glo® Luminescent Cell Viability Assay (Promega). Fab-ZAP is a chemical conjugate of goat anti-human monovalent antibody and the ribosome-inactivating protein, saporin. The antibodies used are affinity-purified polyclonal antibodies against both the heavy and light chain of human IgG. This secondary conjugate is used to evaluate the potential of a primary antibody to internalize.
(§2) Briefly, a concentration range of the anti-Nectin-4 antibodies or the controls were incubated with SUM190 or SUM185 cells. After 45-minute incubation at 4° C., the non-bound antibodies were washed away and Fab-ZAP was added on top of the cells. The newly formed complexes (anti-nectin-4 antibody+Fab-ZAP) internalized into the cells where the Saporin was released and stopped the protein synthesis leading to cell death. The internalization capability of the antibody was indirectly determined by the cell's viability: the more efficient was the cell killing; the better was the internalization capability of the antibody.

Experiment [2] has as its system SUM190 cells. In words: Fab-ZAP internalization assay (CTG cell viability). Type of experiment: cell-based, human. On the procedure: as §1, §2
Experiment [3] has as its system SUM190 cells. In words: In vitro ADC cytotoxicity, 5 days, CTG. Type of experiment: cell-based, human. The conditions noted are these: antibodies conjugated to ggfg-Dxd or PEG (8U)-Val-Ala-PAB-Exatecan, DAR=8.
Description: We assessed the ability of the 5E7 antibody (mAb6) conjugated with camptothecin analogues (Dxd or Exatecan) to kill SUM190 cells. […] A first ADC was prepared in which antibodies were conjugated at 8 toxins per antibody (DAR=8) to a camptothecin analogue (Dxd) via a linker comprising an intracellularly cleavable tetrapeptide linker (GGFG) having the structure shown below, referred to as ggfg-Dxd:
A second ADC was prepared in which antibodies were conjugated at 8 toxins per antibody (DAR=8) to another camptothecin analogue (exatecan) via the cleavable linker having the structure below, referred to as PEG (8U)-Val-Ala-PAB-Exatecan:
Luminescence vs. Ab concentration was plotted on graph.
For each ADC, a concentration range of ADC was incubated with nectin-4-expressing cells. After incubation, CTG substrate was added at 1/1 ratio and the luminescent signal was read with a plate reader (Enspire). It allowed quantifying the ATP present (indicator of metabolically active cells) which was proportional to cell viability.

B1: N41 (antibody, V domains shown)
VH: QVQLKQSGPGLVQPSQSLSITCTVSGFSLTNYGVHWVRQSPGKGLEWLGVIWSGGSTDYNAAFISRLSISKDTSKSQVFFKMNSLQADDTAIYYCARELIHAMDNWGQGTSVTVSS
VL: DIQMTQSPASLSVSVGETVTITCRASENIYSNLAWYQQKQGNSPQLLVFAATNLADGVPSRFSGSGSGTQYSLKINSLQSEDFGTYYCQHFWGTPTFGGGTKLEIK
For the molecule B1, the “control of tumor growth” value in the experiment on SUM190 cells [1] is reported as “no longer showed the ability to control tumor growth”.

B2: 5E7 (antibody, V domains shown)
VH: QVQLQQPGAELVKPGASVKLSCKASGYIFTSYWMHWVKQRPGQGLEWIGEIDPSDSYTNYNQKFKGKATLTLDKSSSTTYMQLSSLTSEDSAVYYCVRGYGNYGDYWGQGTTLTVSS
VL: DVVMTQAAFSNPVTLGTSASISCRSSKSLLHSNGITYLYWYLQKPGQSPQLLIYQMSNLASGVPDRFSSSGSGTDFTLRISRVEAEDVGVYYCAQNLELPWTFGGGTKLEIK
In the case of B2, the “control of tumor growth” value in the experiment on SUM190 cells [1] is given as “strong ability to prevent tumor growth”. The “binding profile on SUM185 cells” value with Nectin-4 on SUM185 cells is recorded as “lower plateau for binding to the SUM185 cells”. Moreover, the induction of internalization result in the experiment with SUM185 cells is on record as “more efficient than enfortumab in inducing internalization”; with SUM190 cells [2] it was “as efficient as the enfortumab in inducing internalization”. In addition, the “killing of SUM190 cells (cell viability)” value in the experiment on SUM190 cells [3] is “more potent that mAb3 conjugated to camptothecin analogue”.

B3: 10B12: anti-Nectin-4 antibody, VH SEQ ID NO: 24, VL SEQ ID NO: 25, binds junction of domain C1 and V (antibody, listed as Mus musculus, V domains shown)
VH: QVQLQQPGAELVKPGASVKLSCKASGYTFTSYWMHWVKQRPGQGLEWIGEIDPSDSYTNYNQKFKGKATLTVDKSSSTAYMQLSSLTSEDSAVYYCVRGYGNYGDYWGQGTTLTVSS
VL: DIVMTQAAFSNPVTLGTSASISCRSSKSLLHSNGITYLYWYLQKPGQSPQLLIYQMSNLASGVPDRFSSSGSGTDFTLRISRVEAEDVGVYYCAQNLELPWTFGGGTKLEIK
For the molecule B3, the “binding profile on SUM185 cells” value in the experiment with Nectin-4 on SUM185 cells is recorded as “lower plateau for binding to the SUM185 cells”. Besides, the induction of internalization result in the experiment on SUM190 cells [2] is “as efficient as the enfortumab in inducing internalization”.
